In patent US20130157932A1, “NGAL AND URINARY TRACT INFECTION” (The Trustees of Columbia University in the City of New York, priority 2010, published 2013):
Entries after “also recorded” stand apart in the source; their conditions may differ.

Columns and labels:
[1] = tested on: UPEC iron acquisition genes; assay: Real time PCR of UPEC iron acquisition genes; format: cell-based, Escherichia coli
Excerpt: To determine whether NGAL-Scn induced bacterial iron starvation, we measured a series of iron acquisition systems (9, 10) that are regulated by iron load via fur, including catecholates enterochelin (ent genes) and salmochelin (iro genes), the hydroxamate aerobactin (iuc genes) (11, 12), their receptors, fepA, iroN (13-15), and iutA, respectively, and additionally the heme scavenging chu receptors (15). […] In sum, uNGAL-Scn is expressed within hours of the onset of infection in vivo, and it is required to limit bacterial growth during the early phases of acute cystitis, most likely by blocking iron acquisition.
Total RNA was isolated with the mirVANA (for eukaryotic cells) or ribopure (for bacteria) RNA extraction kits (Ambion). First strand cDNA was synthesized with Superscript III (Invitrogen). Real-time PCR was performed in a 7500 Fast (Applied Biosystems) with a SYBR green supermix reagent (Fisher) and primers (Table 2) using β-actin (eukaryotic cells) and gapA (for bacteria) as internal controls. Fold amplification of transcripts was measured by the […] method.

[2] = tested on: Ngal expression in the kidney; assay: Kidney Ngal expression (QPCR) after lipid A/LPS in reciprocal kidney cross-transplants; format: in vivo, mouse; conditions: 1 mg/kg, vs untreated cross transplant, n=3
Method: To determine whether uNGAL originated from the kidney in a TLR-dependent fashion, kidney transplantation between Tlr-4-mutant CH3/HeJ mice and wild type CH3/HeOuJ mice was performed. To evaluate the contribution of TLR signaling to NGAL expression a cross-transplant model using TLR mutants and systemic administration of LPS as a positive control was used. The CH3/HeJ kidneys from the LPS-insensitive mice were transplanted into CH3/HeOuJ LPS-sensitive (control) mouse bodies, and vice versa. Two weeks after graft maturation, when uNGAL and sCr had stabilized to normal values, a low dose of lipid A (1 mg/kg of body weight) was administered to induce Ngal expression in the kidney (FIG. 4a). […] It is not surprising that there was some Ngal induction in the knockout (KO) kidney because CH3/HeJ are partial KOs and it has also been previously shown that lipid A can signal through the MyD88-dependent pathway without a functioning Tlr4. […]
To identify elements of the pathway that detect UPEC, we evaluated whether IC could respond to a low dose of LPS (i.p. 1 mg kg^−1), a TLR4 agonist. […]
Surgical cross-transplants (1, 44) were monitored for two weeks until serum creatinine stabilized to 0.2 mg dL^−1 and uNGAL-Scn was undetectable prior to ip challenge with LPS (1 mg kg^−1).

explanted bladders = assay: NGAL-Scn secretion by bladders explanted from LPS treated mice; format: in vivo, mouse
Method: FIGS. 17A-B. C57/BL6 mice challenged with i.p. LPS (1 mg kg^−1) were explanted and media collected at 12 h and 24 hr of culture. FIG. 17A. […] FIG. 17B. NGAL-Scn was detected by Western blot.
Because both the bladder and kidney might contribute to uNGAL-Scn expression, we performed in situ hybridization 1 d post-TU challenge with UPEC (20-30 μl of 5×10^8 CFU ml^−1 i.e. ˜1×10^7 total CFU). We found Ngal-Scn message in collecting duct epithelia (FIG. 8H) (1) and in a thin luminal layer of bladder epithelia (FIG. 8I), but the majority of Ngal-Scn transcripts were found in the kidney (FIG. 8J). Moreover, in a controlled experiment, bladders explanted from mice treated with LPS (1 mg kg^−1) secreted approximately 10 ng per bladder over 12 h (FIG. 17), a small percentage of even a single collection of urine (250 ng ul^−1) from the treated mouse. In sum, while many types of genitourinary epithelia can express uNGAL-Scn in response to cystitis, the kidney was a dominant source of NGAL-Scn, even though kidney bacteria fell at, or below, our limit of detection (10^2 CFU kidney^−1; FIG. 18), and an inoculum less than 50 μl is not likely to generate gross vesico-ureteral reflux (VUR) (24).

NGAL-Scn expression = NGAL-Scn expression in mice after i.p. LPS; format: in vivo, mouse
Method: To identify elements of the pathway that detect UPEC, we evaluated whether IC could respond to a low dose of LPS (i.p. 1 mg kg^−1), a TLR4 agonist. […] To assess the role of TLR4 further, we inoculated LPS-responsive C3H/HeN (Lps“) and C3H/HeOuJ (Lps”) mice and LPS-defective C3H/HeJ (Lps^d) mice by TU with […] of 5×10^8 CFU ml^−1 (n=15). […] To confirm that kidney expressed TLR4 was critical, we cross-transplanted Lps^d kidneys into nephrectomized Lps^n controls and vice versa. […] Concurrently, TLR4 modulates the burden of urinary infection, by regulating the expression of NGAL-Scn in kidney epithelia.

[3] = tested on: uropathogenic Escherichia coli strain (CFT073); assay: In vitro growth of UPEC CFT073 in M9 minimal medium or urine; format: cell-based; conditions: for bacterial growth after addition of FeCl3 to NGAL: M9 with NGAL 5 μM plus FeCl3 1 mM; for bacterial growth (optical density): M9 minimal medium; for growth of UPEC (OD600) in urine: human urine pH 5.8 (<pH 6.0), NGAL-Scn 5 μM
Excerpt: To investigate the relationship between NGAL and UPEC a pyelonephritogenic clinical isolate of uropathogenic Escherichia coli, CFT073, was aliquoted in 96 well plates containing M9 minimal medium supplemented with MgCl2 and glucose (see green hashed line: FIG. 1a), and bacterial growth was monitored by spectrophotometry.
Next, we tested whether NGAL-Scn was sufficient to inhibit urinary bacterial growth. We used UPECs grown to log phase in an iron restricted minimal media (M9), and then subsequently transferred the bacteria into urine or M9. Growth in human urine (<pH 6.0) was similar to growth in acidified M9 (<pH 6.0; FIG. 8C, D).
A single colony of CFT073 was selected from a plate and grown in M9 to log phase. Bacteria were pelleted and resuspended in either M9 or urine and monitored in a 96 well plate on a Tecan 200 Promicroplate reader for up to 72 h.

[4] = tested on: Primary Ngal-Luciferase2/mCherry medullary cells; assay: NGAL-Luc2 expression in primary Ngal-Luciferase2/mCherry kidney cells co-cultured with UPEC; format: cell-based, mouse; conditions: co-culture with UPEC 3 h; antibiotic added at the time of UPEC; n=3
Method: […] Alternatively, primary cells were treated with Lipid A and in some cases with NF-kB inhibitors, MG132 (Cayman Chemical), and Analogues 27, 30, and 3121 and Analogue 3022. The Luciferase substrate (Dual-Glo™ Luciferase Assay System; Promega) was added and luminescence from Luc2 and fluorescence from mC (excitation of 500-550 nm and emission of 575-650 nm) were imaged in a Xenogen IVIS optical imaging system.
Luc2/mC di-fusion reporter mice (8-12 weeks of age) were perfused with PBS and kidney cells were isolated with collagenase (2 mg ml^−1; Sigma), and cultured (1×10^5 well^−1 in 24-well plates; Falcon) in DMEM/F12 medium supplemented with 10% FBS, 1% penicillin-streptomycin, and 46 mg/l L-Valine for 24 h. […] Luciferase substrate (Dual-Glo Luciferase Assay System; Promega) was added and luminescence from Luc2 and fluorescence from mC (excitation 500-550 nm and emission 575-650 nm) were imaged in a Xenogen IVIS optical imaging system.

Enterochelin:Fe [5] = assay: Enterochelin:Fe capture by NGAL-Scn; format: binding; conditions: 3:1 Enterochelin:Fe::Ngal-Scn ratio; washed 5 times on 10 k filter
Method: . IPTG (0.2 mM final concentration) was added for 5 h. Bacterial pellets were lysed by sonication in lysis buffer, followed by Triton-X 100 (0.5%) treatment for 30 min on ice. Supernatant was collected after high speed centrifugation and filter sterilized (0.45 μm). NGAL-Scn-GST was purified by binding to Glutathione Sepharose beads followed by cleavage of the GST tag with thrombin. Released protein was fractionated by a Sephacryl S100HR column. Enterochelin:Fe capture by NGAL-Scn was tested (Emc Microcollections gmbh) at a 3:1 Enterochelin:Fe::Ngal-Scn ratio.

Enterochelin:Fe [6] = conditions: pH 4.0; cited from earlier work
[7] = M9 with iron added to match urinary concentration (806 nM)

## CC(=O)N(O)CCCCCNC(=O)CCC(=O)N(O)CCCCCNC(=O)CCC(=O)N(O)CCCCCN [DFO, reference compound]
[1]; M9 media, DFO 50 μM or 5 μM, n=5
  UPEC iron acquisition gene expression with DFO: modulated

## Lipid A [LPS]
[2]
  increase in Ngal expression, Tlr-4-mutant (Lps^d) kidney in wild type (Lps^n) host: 4.5±2.6 fold
  increase in Ngal expression, wild type (Lps^n) kidney in Tlr-4-mutant (Lps^d) host: 15.6±2.3 fold
Explanted bladders; C57/BL6, i.p. LPS 1 mg kg^−1, 12 h of culture, vs control, n=10
  NGAL-Scn upregulation in bladder explant media at 12 h: 2 fold
Explanted bladders; C57/BL6, i.p. LPS 1 mg kg^−1, 24 h of culture, vs control, n=10
  NGAL-Scn upregulation in bladder explant media at 24 h: 5 fold
Explanted bladders; LPS 1 mg kg^−1, over 12 h
  NGAL-Scn secreted by explanted bladder: approximately 10 ng per bladder
NGAL-Scn expression; LPS 1 mg kg^−1
  NGAL-Scn in a single collection of urine from the treated mouse: 250 ng/µL
NGAL-Scn expression; i.p. LPS 1 mg kg^−1, in situ hybridization
  NGAL-Scn expression in intercalated cells / kidney medulla: induced NGAL-Scn expression; also recorded: detected in alternating cells

## [Cl][Fe]([Cl])[Cl] [FeCl3, reference compound]
[3]
  bacterial growth after addition of FeCl3 to NGAL: rescued
[3]; listed as iron
  bacterial growth after addition of FeCl3 to NGAL: reversed

## gentamicin
[4]
  NGAL-Luc2 expression in response to UPEC: blunted

B1: Neutrophil Gelatinase Associated Lipocalin (NGAL)-Siderocalin (Scn) (protein, UniProt P11672 21-200, looked up)
Neutrophil …: QDSTQNLIPAPSLLTVPLQPDFRSDQFRGRWYVVGLAGNAVQKKTEGSFTMYSTIYELQENNSYNVTSILVRDQDQGCRYWIRTFVPSSRAGQFTLGNMHRYPQVQSYNVQVATTDYNQFAMVFFRKTSENKQYFKITLYGRTKELSPELKERFTRFAKSLGLKDDNIIFSVPTDQCIDN
modifications: recombinant, E. coli
notes: Recombinant mouse NGAL-Scn protein produced in BL21 E. coli
[3]; NGAL 5 μM
  bacterial growth (optical density): greatly inhibited
[3]; NGAL 5 μM, listed as mouse (m) NGAL
  bacterial growth (optical density): significantly inhibited
[3]; NGAL 5 μM, listed as uNGAL
  bacterial growth (optical density): inhibit growth
[3]; M9 pH 5.8 (typical urine pH), NGAL 5 μM, n=3
  growth of UPEC in M9 at pH 5.8: robust inhibition
[3]; M9 pH 7, NGAL 5 μM, n=3
  growth of UPEC in M9 at pH 7: reduced (and variable) growth inhibition
[3]; n=3
  growth of UPEC (OD600) in urine: greatly inhibited
[3]; n=3, listed as uNGAL-Scn
  growth of UPEC (OD600) in urine: inhibited the growth
[1]; [7]
  EntF activation: 2410 fold
  iucD activation: 16970 fold
  iutA activation: 1.9 fold
[1]; UPEC in M9, NGAL-Scn 5 μM
  chuS upregulation: 26.9 fold
  entA upregulation: 396.2 fold
  entF upregulation: 36294.5 fold
  fepA upregulation: 18.0 fold
  iroN upregulation: 207 fold
  iucA upregulation: 12568.5 fold
  iucD upregulation: 19.0 fold
  iutA upregulation: 13.4 fold
[1]; UPEC in M9, NGAL-Scn 5 μM for 30 min, n=5
  entA, entF, and iha gene expression: upregulation
Enterochelin:Fe [5]
  Enterochelin:Fe binding by coloration: binding detected
Enterochelin:Fe [6]
  enterochelin binding at low pH: binds enterochelin even at pH 4.0
